From article PMC11959585, “Modular Nanoparticle Platform for Solution-Phase Optical Sensing of Protein–Protein Interactions” (ACS Applied Optical Materials, 2025)

Key:
Details in all cases: both partners purified
His-tagged PEX5 (1–113) [1] = biological target: T1, His-tagged PEX5 (1–113) (UniProt P50542 1-113); assay: solution-phase LSPR peak shift of nanoparticles (UV–vis); binding curve near equilibrium: PEX14 (16–80) titrated onto hPEX5 construct (0.015 μM) immobilised on nanobiosensors (~0.025 nM); 20 mM sodium phosphate, 100 mM NaCl, 0.025 wt % Tween 20, pH 7.9; fit with the Hill–Waud equation
T1 construct: cytosolic peroxisomal targeting protein PEX5, stretch of the intrinsically disordered N-terminal domain, residues 1-113; His-tagged samples were made with the pETM10 vector; also called hPEX5 (1–113); source: E. coli BL21 (DE3), purified (Ni-NTA, SEC); not shown: His6, N-terminal, kept

[2] = biological target: T2, His-tagged PEX5 (110–230) (UniProt P50542 110-230); assay: solution-phase LSPR peak shift of nanoparticles (UV–vis); kinetic: peak position scanned every 20–30 s for 25 min after manual addition of PEX14 to immobilised hPEX5 (PEX14:PEX5 10:1 for 1–113), exponential fit; ka and kd derived from kobs and KD; 20 mM sodium phosphate, 100 mM NaCl, 0.025 wt % Tween 20, pH 7.9
T2 construct: cytosolic peroxisomal targeting protein PEX5, stretch of the intrinsically disordered N-terminal domain, residues 110-230; His-tagged samples were made with the pETM10 vector; also called hPEX5 (110–230); source: E. coli BL21 (DE3), purified (Ni-NTA, SEC); not shown: His6, N-terminal, kept

His-tagged PEX5 (1–113) [3] = biological target: T1, His-tagged PEX5 (1–113); assay: as above

Kd (His-tagged PEX5 (1–113) [1]): 289 nM | ka near the first inflection point [2]: 12400 M^–1 s^–1 | kd near the first inflection point [2]: 0.00212 s^–1 | koff (His-tagged PEX5 (1–113) [3]): 0.00262 s⁻¹ | kon (His-tagged PEX5 (1–113) [3]): 9060 M⁻¹ s⁻¹
B1: PEX14 (16–80) (domain or fragment, UniProt O75381 16-80, looked up)
chain: TPGSENVLPREPLIATAVKFLQNSRVRQSPLATRRAFLKKKGLTDEEIDMAFQQSGTAADEPSSL
notes: peroxisomal membrane-associated import protein PEX14, globular N-terminal domain, residues 16-80; also called globular N-terminal domain of PEX14; source: E. coli BL21 (DE3), purified (Ni-NTA, TEV cleavage, reverse Ni column, SEC); not shown: His6, N-terminal, cleaved
